According to the supplement of paper PMC7877785:
± gives the uncertainty stated by the source.

Test: self-splicing fitness, log relative to wild type (ln ratio); higher = more splicing; Tetrahymena group I intron in knt gene, E. coli kanamycin selection, DiMSum; sequences stand for … in CUCUCU…GGAGGGAAAAGUUAUCAGGCAUGCACCUGGUAGCUAGUCUUUAAACCAAUAGAUUGCAUCGGUUUAAAAGGCAAGACCGUCAAAUUGCGGGAAAGGGGUCAACAGCCGUUCAGUACCAAGUCUCAGGGGAAACUUUGAGAUGGCCUUGCAAAGGGUAUGGUAAUAAGCUGACGGACAUGGUCCUAACCACGCAGCCAAGUCCUAAGUCAACAGAUCUUCUGUUGAUAUGGAUGCAGUUCACAGACUAAAUGUCGGUCGGGGAAGAUGUAUUCUUCUCAUAAGAUAUAGUCGGACCUCUCCUUAAUGGGAGCUAGCGGAUGAAGUGAUGCAACACUGGAGCCGCUGGGAACUAAUUUGUAUGCGAAAGUAUAUUGAUUAGUUUUGGAGUACUCGUGGUCG
Method in brief: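 Colonies from six replicate transformations of E. coli BL21(DE3) were pooled and amplicon-sequenced on an Illumina HiSeq 2500. The library placed an intron with all eight P1ex-region nucleotides randomised inside the knt kanamycin-resistance gene on pET-22b(+), and cells grew overnight at 37°C or 30°C on LB agar with or without 25 μg/mL kanamycin (plus 100 μg/mL carbenicillin, 50 μM IPTG, 0.2% rhamnose). Fitness is the DiMSum error-weighted combination of wild-type-normalised replicate fold changes, kanamycin versus none.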

Sequence	self-splicing fitness (ln) (30 °C)	self-splicing fitness (ln) (37 °C)
CUCUAGCAAUAUUACGUAGA	-3.49 ± 0.27	-1.6 ± 0.17
UCAAAGCAAUAUUACGUACU	-3.16 ± 0.45	-2.28 ± 0.37
CCGGAGCAAUAUUACGGAAC	-3.29 ± 0.47	-1.67 ± 0.36
CCCUAGCAAUAUUACGGCGC	-3.55 ± 0.21	-3.28 ± 0.24
UGAUAGCAAUAUUACGUUGG	-2.45 ± 0.12	-1.63 ± 0.16
AAUAAGCAAUAUUACGGAAU	-2.69 ± 0.15	-0.645 ± 0.11
UGAAAGCAAUAUUACGAGGC	-3.66 ± 0.28	-2.36 ± 0.21
CUGCAGCAAUAUUACGCGUC	-3.98 ± 0.35	-2.05 ± 0.32
AUUCAGCAAUAUUACGGAUC	-3.24 ± 0.11	-2.53 ± 0.18
AGAAAGCAAUAUUACGAUCU	-2.88 ± 0.11	-0.99 ± 0.11
GAUCAGCAAUAUUACGUUCA	-0.939 ± 0.15	-0.942 ± 0.18
GAUUAGCAAUAUUACGGGUC	–	-2.78 ± 0.34
CAUCAGCAAUAUUACGUUGC	-3.81 ± 0.27	-2.84 ± 0.2
UUCUAGCAAUAUUACGAUCU	-2.84 ± 0.34	-2.52 ± 0.27
UGAAAGCAAUAUUACGGCUG	0.281 ± 0.088	0.316 ± 0.11
GUUGAGCAAUAUUACGUAGC	-0.983 ± 0.2	-2.07 ± 0.35
UGGUAGCAAUAUUACGAUCA	-0.00935 ± 0.1	0.325 ± 0.13
GUCUAGCAAUAUUACGAGAG	-2.4 ± 0.17	-1.33 ± 0.12
GAUGAGCAAUAUUACGAAGG	-1.14 ± 0.26	–
GUGCAGCAAUAUUACGAGCG	-0.973 ± 0.072	-0.518 ± 0.083
GUCAAGCAAUAUUACGAGGC	-3.94 ± 0.24	-2.83 ± 0.18
GUAUAGCAAUAUUACGGUGC	-2.45 ± 0.23	-1.76 ± 0.36
ACCCAGCAAUAUUACGGUCA	-1.55 ± 0.067	-0.429 ± 0.069
AGAUAGCAAUAUUACGUAGA	-3.03 ± 0.15	-1.77 ± 0.16
UUAUAGCAAUAUUACGUAUU	–	-2.08 ± 0.25

Sequence	self-splicing fitness (ln) (30 °C)	self-splicing fitness (ln) (37 °C)
UACAAGCAAUAUUACGCCCA	0.292 ± 0.11	0.261 ± 0.13
UGCAAGCAAUAUUACGACGU	-1.76 ± 0.1	-1.1 ± 0.13
CGAAAGCAAUAUUACGGCUC	-2.88 ± 0.18	-1.73 ± 0.21
UAUGAGCAAUAUUACGAACA	-2.47 ± 0.24	-0.662 ± 0.14
AGCUAGCAAUAUUACGCACG	-0.605 ± 0.16	-0.0907 ± 0.18
UUCAAGCAAUAUUACGGAAU	–	-2.57 ± 0.23
AUUAAGCAAUAUUACGCUUC	-3.05 ± 0.19	-2.03 ± 0.18
GUCGAGCAAUAUUACGGAUC	-1.36 ± 0.087	-0.586 ± 0.097
AGAGAGCAAUAUUACGGGAA	-4.12 ± 0.35	-2.62 ± 0.28
UCGUAGCAAUAUUACGAUUU	-3.1 ± 0.25	-2.4 ± 0.24
ACUGAGCAAUAUUACGAGGG	-2.5 ± 0.18	-2.21 ± 0.33
CCAAAGCAAUAUUACGUCUC	-3.08 ± 0.13	-2.89 ± 0.092
CAUUAGCAAUAUUACGCACC	-2.94 ± 0.23	-1.53 ± 0.19
AUAUAGCAAUAUUACGCGUG	-1.1 ± 0.12	-0.528 ± 0.14
GCAAAGCAAUAUUACGACUA	-0.955 ± 0.05	-0.475 ± 0.055
CGCCAGCAAUAUUACGCUCU	-1.6 ± 0.081	-1.06 ± 0.097
UUGUAGCAAUAUUACGGCUU	-1.41 ± 0.12	0.113 ± 0.14
AUUUAGCAAUAUUACGCUCG	-0.131 ± 0.1	0.715 ± 0.15
GGCCAGCAAUAUUACGCGGU	-3.63 ± 0.46	-2.53 ± 0.34
CCACAGCAAUAUUACGGUCU	-3.44 ± 0.11	-1.87 ± 0.12
ACAUAGCAAUAUUACGCAGA	-2.47 ± 0.14	-1.74 ± 0.14
CCUUAGCAAUAUUACGGAUG	-1.72 ± 0.064	-0.271 ± 0.08
ACGCAGCAAUAUUACGGAAU	-2.27 ± 0.1	-2.07 ± 0.14
GGACAGCAAUAUUACGUGCC	-3.78 ± 0.19	-2.02 ± 0.21
